Test results as given in publication PMC3333854 (Nucleic Acids Research, 2011).

Target: wild-type E. coli core RNA polymerase (E. coli, UniProt P0A8T7 1-1407; P0A8V2 1-1342; P0A7Z4 1-329; P0A800 1-91)
Test: fluorescence polarisation

wild-type E. coli core RNA polymerase, sequence (P0A8T7 whole entry, chain 1 of 4): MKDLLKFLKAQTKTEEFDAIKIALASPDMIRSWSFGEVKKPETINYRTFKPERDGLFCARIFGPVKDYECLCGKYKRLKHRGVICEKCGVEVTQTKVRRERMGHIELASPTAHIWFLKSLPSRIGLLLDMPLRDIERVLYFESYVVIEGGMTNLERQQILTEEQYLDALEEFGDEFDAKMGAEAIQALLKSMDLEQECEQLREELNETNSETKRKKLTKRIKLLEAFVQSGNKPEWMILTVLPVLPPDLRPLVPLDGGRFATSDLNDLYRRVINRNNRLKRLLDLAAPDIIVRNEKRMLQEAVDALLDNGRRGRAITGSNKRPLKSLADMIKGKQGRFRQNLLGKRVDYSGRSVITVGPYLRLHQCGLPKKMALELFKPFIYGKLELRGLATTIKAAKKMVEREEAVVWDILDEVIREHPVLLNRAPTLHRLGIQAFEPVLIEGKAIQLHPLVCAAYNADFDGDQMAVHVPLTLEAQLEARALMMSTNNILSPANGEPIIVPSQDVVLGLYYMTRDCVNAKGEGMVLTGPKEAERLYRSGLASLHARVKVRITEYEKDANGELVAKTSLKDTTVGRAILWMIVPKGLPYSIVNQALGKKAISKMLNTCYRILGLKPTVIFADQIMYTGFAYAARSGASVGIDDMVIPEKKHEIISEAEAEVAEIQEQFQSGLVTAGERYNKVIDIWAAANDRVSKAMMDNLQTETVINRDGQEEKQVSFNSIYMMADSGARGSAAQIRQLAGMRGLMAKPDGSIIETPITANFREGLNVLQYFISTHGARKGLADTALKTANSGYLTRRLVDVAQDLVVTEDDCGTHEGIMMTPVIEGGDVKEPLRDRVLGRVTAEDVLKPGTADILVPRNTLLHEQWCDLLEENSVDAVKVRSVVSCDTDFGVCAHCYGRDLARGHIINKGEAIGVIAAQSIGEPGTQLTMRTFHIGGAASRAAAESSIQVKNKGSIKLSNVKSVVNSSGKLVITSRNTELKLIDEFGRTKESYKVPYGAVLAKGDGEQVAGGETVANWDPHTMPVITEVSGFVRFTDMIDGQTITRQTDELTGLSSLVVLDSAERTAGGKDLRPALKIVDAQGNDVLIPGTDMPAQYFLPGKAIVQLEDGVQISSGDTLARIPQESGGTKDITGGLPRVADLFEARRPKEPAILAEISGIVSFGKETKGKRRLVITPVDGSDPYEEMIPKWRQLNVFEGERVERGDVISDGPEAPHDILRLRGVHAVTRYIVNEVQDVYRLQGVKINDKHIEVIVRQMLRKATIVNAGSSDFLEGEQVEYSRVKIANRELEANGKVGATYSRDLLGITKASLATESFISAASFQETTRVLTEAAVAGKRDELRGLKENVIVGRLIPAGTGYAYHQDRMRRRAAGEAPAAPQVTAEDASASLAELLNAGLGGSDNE
wild-type E. coli core RNA polymerase, sequence (P0A8V2 whole entry, chain 2 of 4): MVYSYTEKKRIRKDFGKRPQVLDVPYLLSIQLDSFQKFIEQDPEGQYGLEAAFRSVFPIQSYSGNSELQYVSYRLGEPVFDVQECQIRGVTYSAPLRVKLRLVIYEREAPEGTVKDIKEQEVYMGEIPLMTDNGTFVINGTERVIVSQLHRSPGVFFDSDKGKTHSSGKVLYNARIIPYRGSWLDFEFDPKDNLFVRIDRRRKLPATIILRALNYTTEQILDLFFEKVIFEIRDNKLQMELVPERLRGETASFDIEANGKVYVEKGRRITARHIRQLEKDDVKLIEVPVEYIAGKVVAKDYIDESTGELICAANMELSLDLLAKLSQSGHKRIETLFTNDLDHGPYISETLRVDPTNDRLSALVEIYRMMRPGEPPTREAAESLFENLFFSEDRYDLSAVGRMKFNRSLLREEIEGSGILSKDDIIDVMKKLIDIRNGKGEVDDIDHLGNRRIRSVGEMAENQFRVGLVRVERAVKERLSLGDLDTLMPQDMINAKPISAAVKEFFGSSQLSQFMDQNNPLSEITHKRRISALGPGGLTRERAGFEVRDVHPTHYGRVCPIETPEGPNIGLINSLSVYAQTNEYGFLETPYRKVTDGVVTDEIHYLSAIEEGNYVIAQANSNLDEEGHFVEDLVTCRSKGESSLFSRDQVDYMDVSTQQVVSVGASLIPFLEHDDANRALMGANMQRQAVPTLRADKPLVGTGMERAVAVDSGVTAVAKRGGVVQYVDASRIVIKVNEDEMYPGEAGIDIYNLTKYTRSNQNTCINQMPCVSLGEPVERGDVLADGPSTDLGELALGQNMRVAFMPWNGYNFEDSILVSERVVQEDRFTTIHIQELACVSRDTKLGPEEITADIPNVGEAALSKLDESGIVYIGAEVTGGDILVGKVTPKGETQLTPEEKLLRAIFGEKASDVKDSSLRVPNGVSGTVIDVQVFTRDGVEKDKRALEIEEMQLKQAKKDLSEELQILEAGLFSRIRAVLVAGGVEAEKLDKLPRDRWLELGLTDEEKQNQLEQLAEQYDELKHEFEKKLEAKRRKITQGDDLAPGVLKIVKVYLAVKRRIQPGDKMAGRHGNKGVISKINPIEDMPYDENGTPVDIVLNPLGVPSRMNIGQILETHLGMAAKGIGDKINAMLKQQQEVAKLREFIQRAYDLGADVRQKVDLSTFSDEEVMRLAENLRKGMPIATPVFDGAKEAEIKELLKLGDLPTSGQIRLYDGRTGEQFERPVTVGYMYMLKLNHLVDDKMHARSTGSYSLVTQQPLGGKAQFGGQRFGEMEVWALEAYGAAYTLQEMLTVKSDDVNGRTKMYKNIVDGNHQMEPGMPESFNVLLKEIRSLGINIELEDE
wild-type E. coli core RNA polymerase, sequence (P0A7Z4 whole entry, chain 3 of 4): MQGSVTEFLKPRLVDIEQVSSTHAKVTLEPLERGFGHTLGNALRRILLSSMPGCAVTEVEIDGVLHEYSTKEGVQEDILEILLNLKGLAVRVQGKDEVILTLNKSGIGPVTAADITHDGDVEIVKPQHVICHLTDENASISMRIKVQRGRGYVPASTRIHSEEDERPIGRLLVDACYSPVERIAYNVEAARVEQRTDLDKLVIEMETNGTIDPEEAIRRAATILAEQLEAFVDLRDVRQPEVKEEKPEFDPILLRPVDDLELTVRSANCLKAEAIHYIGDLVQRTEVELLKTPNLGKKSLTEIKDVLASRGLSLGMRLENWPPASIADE
wild-type E. coli core RNA polymerase, sequence (P0A800 whole entry, chain 4 of 4): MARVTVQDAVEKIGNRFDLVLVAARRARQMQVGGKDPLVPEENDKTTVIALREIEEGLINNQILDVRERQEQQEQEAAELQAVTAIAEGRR

B1: DksA^A35C labeled with Alexa Fluor 546 maleimide (natural protein, Escherichia coli, UniProt P0ABS1 1-151, looked up)
chain: MQEGQNRKTSSLSILAIAGVEPYQEKPGEEYMNECQLAHFRRILEAWRNQLRDEVDRTVTHMQDEAANFPDPVDRAAQEEEFSLELRNRDRERKLIKKIEKTLKKVEDEDFGYCESCGVEIGIRRLEARPTADLCIDCKTLAEIREKQMAG
modifications: labeled with Alexa Fluor 546 maleimide (labeling efficiency 60-100%)
How did the Kd turn out when B1 was run?
The Kd was 102 ± 13 nM.
